This is an account of results in the DeepSol protein solubility set.

The nature of this data set: soluble on expression in E. coli; label from the status in PepcDB or PDB records.
Consider “MSLNQLTDHVTLRHGATLNNRIVMSPMQTHSGLKGGFASDDTIQYYSARSRAAGMLITEFHYVSENGGPAYVPGYPEQLGAYSDAHLEGLRKTVQALKKDGNKAILQIHHAGRAAVGRHVNGLDVVAPSAIDFSFLDYPVRELTITEIDDIILDFGKATKRAIDAGFDGVEIHGANHYLIQQFFSKLSNLRTDKWGGSLNKRMAFPLAVVKEVKAIVDEYAPKGFIIGYRISPEELHGKNVGYDYTEALTLISEVIKYELDYIHLSLWAGYNSKPENSEKSYAELFKEILDDKTKLLIVGGIFGEDTATDAIENYADLIAVARGTLIDPNFAKKVTEGKGDTILHKISPETVEYSHLTPGLLEAFSREDSLGLPPLPGGETIRHLHTGKYDEGHHHHHH”, for which the “soluble on expression in E. coli” value was “soluble”.
The value for “MSLRIRVPATTANLGPGFDSCGLALTLYLTLDIGAEADSWYIEHNIGGGIPHDETNVIIETALNLAPNLTPHHLVMTCDIPPARGLGSSSAAVVAGIELANTLAELNLSKEEKVRIAAEIEGHPDNVAPAVLGNWVVGAKLDGEDFYVRHLFPDCALIAFIPKAELLTSESRGVLPDTLPFKEAVQASSIANVMIAAILRNDMTLAGEMMERDLWHEKYRSQLVPHLAQIRDVAKNQGAYAACLSGAGPTVLVFAPRNLANKLQTSLQTLEIDADVLLLDVEGSGAEVFREGHHHHHH” was “soluble”.
The value for “METTSVFRADFLSELDAPAQAGTESAVSGVEGLPPGSALLVVKRGPNAGSRFLLDQAITSAGRHPDSDIFLDDVTVSRRHAEFRLENNEFNVVDVGSLNGTYVNREPVDSAVLANGDEVQIGKFRLVFLTGPKQGEDLEHHHHHH” was “not soluble”; that for “MPIADTVTLNSGYEMPVIGYGTWQLPKNLAAERVRDALEAGYRHIDSALSFKNQEEVAAGIKDWCKIRKVRREELFLSSKIWNTYHSRNRCMQQIDEMLEIFETTYMDLIVIHWPFGWAEDEPPGERGLWPRGANGKMRYSDVDYLETWKALEDAHRSGKIRSIGLANFNIGQVEQVWTKGLIKPAVLQVEMNPFLDQEEIRQFCREKGIILTAFMLTGNPGSALYRKHEDPNLLYNETLQSIAKGHGKSVVQVLVRWAIDLRTTALVKSSESKRIRQNINIFKFRLTSQEIARIKALNIDFRILNPLLGNYDHPYFPWPHVQEEQLPQKVEEPDPENL” was “not soluble”.
The value for “MGSDKIHHHHHHMANLPWITIIGLGEDGPEGLPPASRDALAAAEIIMGPARHLALIGPTNAQQVEWPVPFADGIDVLRGHGGRPVAVLVSGDPFWYGAGRAMSKAFGRDAWRAIPVPSVFSLVSSRMGWPIEDTLCIGLHARPFEQLRAKLAPGRRIIATLRDGPAVSGVAHFLRDTGFGGSTLTVCEAVGGPREVVTQVSVAEALKGGFSHPVTVAVELHGTGEVIPLASGRPDALFQTDGVMTKRPVRALTLSALAPRAGEHLWDIGGGSGSIAVEWALADRTCTATVVETRADRVALIRANVESFGLTDQVTVLEGMAPGAMADAPPANAVFIGGGLSPEMLQFVTALPKGTRVVANAVTLEAEAHLAQAQGSFGGDLMRIEIAHAQPLGPKRGWTSAYPVVQWSVTL” was “not soluble”; that for “MAHPQEIREKLRRLYVSGEQTLETAALMCEIPQTTARAWKRADKEKGDDWDKMRAAYTLAGGGIEDLSRAMLAGFMVQYNSTMTMLQDSSTEDLPPSDRAKLLASLADAFTKTVSANARVMPETSKLATALELIEFLMAFVQEKHPKHLPAFVEVLEPFGVEVEKKFG” was “not soluble”.
“MTNKREDVRNIAIIAHVDHGKTTLVDELLKQSGIFRENEHVDERAMDSNDIERERGITILAKNTAVDYKGTRINILDTPGHADFGGEVERIMKMVDGVVLVVDAYEGTMPQTRFVLKKALEQNLKPVVVVNKIDKPSARPEGVVDEVLDLFIELEANDEQLEFPVVYASAVNGTASLDPEKQDDNLQSLYETIIDYVPAPIDNSDEPLQFQVALLDYNDYVGRIGIGRVFRGKMRVGDNVSLIKLDGTVKNFRVTKIFGYFGLKRLEIEEAQAGDLIAVSGMEDINVGETVTPHDHQEALPVLRIDEPTLEMTFKVNNSPFAGREGDFVTARQIQERLNQQLETDVSLKVSNTDSPDTWVVAGRGELHLSILIENMRREGYELQVSKPQVIIKEIDGVMCEPFERVQCEVPQENAGAVIESLGARKGEMVDMTTTDNGLTRLIFNVPARGMIGYTTEFMSMTRGYGIINHTFEEFRPRIKAQIGGRRNGALISMDQGSASTYAILGLEDRGVNFMEPGTEVYEGMIVGEHNRENDLTVNITKTKHQTNVRSATKDQTQTMNRPRILTLEEALQFINDDELVVVTPESIRLRKKILNKNVREKEAKRIKQMMQENE”: the “soluble on expression in E. coli” value is “not soluble”.
The same measure for “MLMPRRMKYRKQQRGRLKGATKGGDYVAFGDYGLVALEPAWITAQQIEAARVAMVRHFRRGGKIFIRIFPDKPYTKKPLEVRMGKGKGNVEGYVAVVKPGRVMFEVAGVTEEQAMEALRIAGHKLPIKTKIVRRDAYDEAQ”: “soluble”; for “MSYEKEFLKDFEDWVKTQIQVNQLAMATSQEVAQEDGDERAKDAFIRYESKLDAYEFLLGKFDNYKNGKAFHDIPDELFGARHY”: “soluble”; for “MAGAGGQRNSEHVLCDACYFEEFDLVDAPDTIQVRVCSRCGAVHKGNRWVDIGAEDYTDIAVEQVSEALGIHVDAQSVAWQVAPEQLDKNNIRMHAEFSGVIRGTPVTEEVTVPVRISRQTCKRCGKIAGGSFASIVQVRADGRDPTDDERERAEEIAQEYVAAREETGDRNAFITETKSVDDGLDMKISTNQMGLGIAKRITAQLGGSYSDSRRLISEDEDGQELYRMTYAVRLPRYRQGEVIDPEDGDGPVLVRSVQGNLKGVRLATGEDYEASFEAGETPDARRLGFREDGQQTTLVAIEDERAVQVLDPETFESKTVPRPDYLDIDADEVPVLKSHAGLHILPAADADTDELEHHHHHH”: “not soluble”.
With “MTKCSIIIGIFLIAAINGQASKRRIQYESVSQFLFHNSKLCGDPFSDAVWLPVLDLCSIECEITSEYCVENEELTQQCKKLPEDCQALLRKAIKQIQRHIRSQKPVYL”, the “soluble on expression in E. coli” value was “not soluble”.
On to “MPYKAKSDLPDNVRNVLPAHAQDIYKEAFNSAWEQYKDKADRRDDASREETAHKVAWAAVKNDYEKGEDDKWHKKK”, for which the “soluble on expression in E. coli” value was “not soluble”.
The same measure for “MAVLKIISWNVNGLRAVHRKGFLKWFMEEKPDILCLQEIKAAPEQLPRKLRHVEGYRSFFTPAERKGYSGVAMYTKVPPSSLREGFGVERFDTEGRIQIADFDDFLLYNIYFPNGKMSEERLKYKLEFYDAFLEDVNRERDSGRNVIICGNFNTAHREIDLARPKENSNVSGFLPVERAWIDKFIENGYVDTFRMFNSDPGQYTWWSYRTRARERNVGWRLDYFFVNEEFKGKVKRSWILSDVMGSDHCPIGLEIELLEHHHHHH”: “soluble”.
With “VDRYNDQASGRALIEIRLCNERATPMPIPIGLWMFQTKLHVNAGGADVFLPVCDVLEQDLAERDEEVRQLNLQYRNRLEYAIGRTCSAAWSVNGSRRPSAVWTTWLPVAETPHTRARSVENALLSMDSRGGVT”, the “soluble on expression in E. coli” value was “not soluble”.
With “MRGNLKLFELKSGRGEKLMKNILIISSSPRKKGNSQILCEQFKKGAEAKGHQVKIVRIMEQNIGFCRACDGCMRNGGTCVLKDDMAEILKMFQKADVLVLATPVYFYGISAQMKTFIDRTYPIWQHLGKKEVYYIISAGLGEDIIERSLGDLNGFVEHLEEYKISGKIYAANVMDAGLVKNQSVFQKAYDMGYAI”, the “soluble on expression in E. coli” value is recorded as “not soluble”.
The value for “MGSDKIHHHHHHMKEIRIILMGTGNVGLNVLRIIDASNRRRSAFSIKVVGVSDSRSYASGRNLDISSIISNKEKTGRISDRAFSGPEDLMGEAADLLVDCTPASRDGVREYSLYRMAFESGMNVVTANKSGLANKWHDIMDSANQNSKYIRYEATVAGGVPLFSVLDYSILPSKVKRFRGIVSSTINYVIRNMANGRSLRDVVDDAIKKGIAESNPQDDLNGLDAARKSVILVNHIFGTEYTLNDVEYSGVDERSYNANDRLVTEVYVDDRRPVAVSRIISLNKDDFLMSIGMDGLGYQIETDSNGTVNVSDIYDGPYETAGAVVNDILLLSKVQK” was “not soluble”; that for “MGSDKIHHHHHHMKVHVLASGSTGNAVLFQFGESKILVDAGISCRRIENGLQAIGTRAGELDAVLLTHEHTDHIKGLDVFIRKYQLPVFARPATWSKIDCRKKFPGECIKELEGTFSLGKVLIEPFAISHDAIDPVGFCFYYGKRKAVIATDLGMVSREVEKALSFSDIAVLESNHDPQMLKNGPYPPYLKKRIEGREGHLSNFDTARLLSTVPRHNPMQVLLAHISQQNNHPMLAQQTVSKIMQDSGCEVGREIGIYPTFPHHGITCTMTRVFAVNAPLFQWADLLAKQDGRGKAN” was “not soluble”; that for “MGSDFDHLVNSLSDVELLNLFIQSCSQTTINGVPVPRFPPEEIQKQFVGASYEHALYEAYLFYRHIKEYAQNLGVPLNKESKVLDFGCGWGRIIRFLFKDASDQNLLGIDVDPAMITLCNETLGRGIYKTASPHPPVEFISDNSLDIIFAYSVFSHLSEATAENWVKEFSRVLRPGGIFIATTQARYFLDFCQQFQEHPELIQTGWHKTLSQAFPDIHRAISDYENGKFVHSPTGAGDVRNSSFYGETVIPRTYIENHYEKYLKLQDFFDDVNRLPQALFVLQKILEHHHHHH” was “soluble”.
The value for “MSIEIKTNSVEPIRHTYGHIARRFGDKPATRYQEASYDIEAKTNFHYRPQWDSEHTLNDPTRTAIRMEDWCAVSDPRQFYYGAYVGNRAKMQESAETSFGFCEKRNLLTRLSEETQKQLLRLLVPLRHVELGANMNNAKIAGDATATTVSQMHIYTGMDRLGIGQYLSRIALMIDGSTGAALDESKAYWMDDEMWQPMRKLVEDTLVVDDWFELTLVQNILIDGMMYPLVYDKMDQWFESQGAEDVSMLTEFMRDWYKESLRWTNAMMKAVAGESETNRELLQKWIDHWEPQAYEALKPLAEASVGIDGLNEARAELSARLKKFELQSRGVSA” was “soluble”; that for “MGSDKIHHHHHHMDRVQAMRVFVAVVDCGGFTRAAQQLQLPRATVSSAVQQLEAQLGARLLHRTTRRVQLTLDGGTFYERCQQLLADFDELESLFSQQGASPRGKLRIDVPGPIGRQVLAPALPEFFRLYPGIELELGVTDRPVDLIQEGVDCVIRVGALAESRLVARRIGMLPQGNYASPDYLAAFGAPASPDALAGHRAVNYASPSTGKVFAWEYLQDGERRELALQSLVSVNQVESYIACALAGLGMIQLPRYDAEPHVAAGALVEVLADWPPPAMPVSVLYPHRRHLSRRVQVFVEWAGALLRERLRLGA” was “not soluble”.
The same measure for “MGSDKIHHHHHHMVEVLTESNQSLDSLEALCSKYRIERGIVATVVDLNERILAELAALPFPLLWLNHETPLPVGNLYETPETLGYDRIAAVVGANEQFPHNDILVIDAGTCITYEFIDSKGQYHGGNISPGMQMRYKALHQFTGRLPLIDSNGRKLPMGRDTETAIRAGVLKGMEYEISGYIEAMKHKYPELLVFLTGGDDFSFDSSVKSAIFADRFLVLKGLNRILNYNNGRI”: “not soluble”; for “MGSDKIHHHHHHMPWLRFCDRDRSVHMLVAMLDLTREKAEQVMRRGPWLASMTEPFRTELLRHAHLQKFAPDQVVYRHGDAVGGMYGLVAGSLTINSAPPDAASRLIHLGMPGAWTGEGPFLTGQPRRVELRALGGAWMMHVPLDALEQMMARDPGVSRAIAMNTVFTVDVLLRIIHDLQKRAVGRRIASVLQRASWVGDMPIPLSQTDLGIMANASRQQVNTAMQRFARAGWVSYTYRSVTVSNSQALRRFSEGDGSEW”: “not soluble”.
